Data as given in the RNAGym collection of RNA variant scans (doi:10.7554/elife.80360).

B1: CPEB3 Ribozyme (parent)
chain: GGGGGCCACAGCAGAAGCGUUCACGUCGCGGCCCCUGUCAGAUUCUGGUGAAUCUGCGAAUUCUGCUGU

Variants of: B1
Assay: self-cleavage, relative activity (ratio to wild type); higher = more cleavage; co-transcriptional

Going from G4A U53A to G4U G65C, the self-cleavage falls from 0.602 to 0.411.

Compared with G4U G65U, G4C C22U is lower in self-cleavage: 0.254 for the first, 0.074 for the second.

Compared with G4C C22G, G5A G47U is higher in self-cleavage: 0.082 for the first, 0.932 for the second.

First: G4C C39G
Second: G4U G31A
The self-cleavage of the first is higher: 0.298 for the first, 0.0947 for the second.

Compared with G4U G14A, G4U U44A is higher in self-cleavage: 0.257 for the first, 0.532 for the second.

First: G4U C6U
Second: G4A G31A
The self-cleavage of the first is higher: 0.31 for the first, 0.227 for the second.

Compared with G4A C22A, G5A G19U is higher in self-cleavage: 0.087 for the first, 0.197 for the second.

Compared with G4U G28U, G4U G28A is higher in self-cleavage: 0.0847 for the first, 0.0947 for the second.

Going from G4U U26C to G4U U26A, the self-cleavage falls from 0.641 to 0.282.

Compared with G4C U62A, G5C A16C is lower in self-cleavage: 0.157 for the first, 0.0946 for the second.

First: G5C A16U
Second: G5C A16G
The self-cleavage of the first is lower: 0.169 for the first, 0.205 for the second.

First: G4U A8G
Second: G4U A8C
The self-cleavage of the first is lower: 0.512 for the first, 0.691 for the second.

Going from G5A U36G to G5A U36C, the self-cleavage rises from 0.521 to 0.831.

Going from G4A U46G to G4A U46A, the self-cleavage rises from 0.841 to 0.899.

Going from G4U C39U to G4U C39G, the self-cleavage rises from 0.376 to 0.558.

Going from G4C C27A to G4C C27G, the self-cleavage rises from 0.0979 to 0.108.

First: G3U U36A
Second: G3U U38A
The self-cleavage of the first is lower: 0.0376 for the first, 0.22 for the second.

Compared with G4A U38C, G4U U69G is higher in self-cleavage: 0.699 for the first, 0.941 for the second.

Compared with G4U U69C, G5C G56U is lower in self-cleavage: 1.02 for the first, 0.131 for the second.

Compared with G5C G56C, G4U A15C is lower in self-cleavage: 0.166 for the first, 0.138 for the second.

First: G4U A15G
Second: G5C C57U
The self-cleavage of the first is higher: 0.678 for the first, 0.0922 for the second.

First: G5C G50U
Second: G5A A23C
The self-cleavage of the first is lower: 0.243 for the first, 0.766 for the second.

First: G5A A23G
Second: G4C U46G
The self-cleavage of the first is higher: 0.806 for the first, 0.601 for the second.

Compared with G4C U46A, G4A A52G is higher in self-cleavage: 0.663 for the first, 0.864 for the second.

Going from G4A A52C to G4C A16U, the self-cleavage falls from 0.763 to 0.197.

Going from G4C A16C to G3U U53G, the self-cleavage rises from 0.0339 to 0.0759.

First: G4U U62A
Second: G4A U62G
The self-cleavage of the first is lower: 0.315 for the first, 0.419 for the second.

First: G4A U62A
Second: G4U U61A
The self-cleavage of the first is higher: 0.601 for the first, 0.154 for the second.

Going from G4U U61G to G4U G17U, the self-cleavage falls from 0.439 to 0.072.

Going from G4U G17C to G4A G56A, the self-cleavage rises from 0.112 to 0.604.

Going from G4U C9U to G5A G50U, the self-cleavage falls from 0.954 to 0.906.

Compared with G4C U64G, G5A U21G is lower in self-cleavage: 0.355 for the first, 0.161 for the second.

First: G4C U49C
Second: G4C U49G
The self-cleavage of the first is higher: 0.548 for the first, 0.341 for the second.

Going from G4C U49A to G4A A10U, the self-cleavage rises from 0.657 to 0.941.

Compared with G3U U61G, G4U G37U is higher in self-cleavage: 0.114 for the first, 0.128 for the second.

Going from G5A A16C to G4U C22G, the self-cleavage falls from 0.134 to 0.0672.

Going from G4C U69C to G4C C6U, the self-cleavage falls from 0.958 to 0.132.

First: G4A C54U
Second: G4A C54A
The self-cleavage of the first is higher: 0.776 for the first, 0.457 for the second.

Going from G5A C12U to G4C A15U, the self-cleavage falls from 0.931 to 0.0935.

Going from G5A A40U to G4U A60G, the self-cleavage falls from 0.719 to 0.302.

Going from G5A U53A to G5A U53C, the self-cleavage falls from 0.74 to 0.584.

Going from G4C C63G to G4U A23U, the self-cleavage rises from 0.211 to 0.86.

First: G4U A23C
Second: G5A C6G
The self-cleavage of the first is higher: 0.573 for the first, 0.0495 for the second.

Going from G4U G48U to G4U G48C, the self-cleavage falls from 0.813 to 0.752.

Going from G4A C32U to G4A C32G, the self-cleavage falls from 0.495 to 0.171.

First: G4U U38G
Second: G4U G56A
The self-cleavage of the first is lower: 0.114 for the first, 0.466 for the second.

Compared with G5C U20C, G5C U20A is lower in self-cleavage: 0.0972 for the first, 0.0824 for the second.

Going from G4A U36A to G4U G50U, the self-cleavage rises from 0.13 to 0.817.

Compared with G4U G50C, G4A A23C is lower in self-cleavage: 0.764 for the first, 0.573 for the second.

Compared with G5C U46G, G4C U55G is lower in self-cleavage: 0.235 for the first, 0.231 for the second.

First: G5C C24A
Second: G4C G50U
The self-cleavage of the first is lower: 0.112 for the first, 0.637 for the second.

Compared with G5C U44A, G5C U44G is lower in self-cleavage: 0.24 for the first, 0.203 for the second.

First: G5A C32U
Second: G5A C32G
The self-cleavage of the first is higher: 0.992 for the first, 0.847 for the second.

Compared with G3U U62C, G5C U43A is higher in self-cleavage: 0.0865 for the first, 0.183 for the second.

Going from G4A U26A to G4A U26G, the self-cleavage falls from 0.604 to 0.504.

G4C G31U and G4C G31A are the same in self-cleavage: 0.179 for the first, 0.179 for the second.

First: G5C C32U
Second: G5C C32A
The self-cleavage of the first is lower: 0.703 for the first, 0.805 for the second.

First: G4C A13C
Second: G5A G48C
The self-cleavage of the first is lower: 0.216 for the first, 0.956 for the second.

First: G5A G48U
Second: G5A U67A
The self-cleavage of the first is lower: 0.939 for the first, 0.953 for the second.

Going from G4C C33G to G4C C33U, the self-cleavage falls from 0.98 to 0.804.

Going from G4C C33A to G4U A13G, the self-cleavage falls from 0.989 to 0.649.

Going from G4A A42U to G4C A52U, the self-cleavage falls from 0.721 to 0.603.

Compared with G5C C45A, G4U C27G is lower in self-cleavage: 0.283 for the first, 0.0677 for the second.

Going from G4A G25C to G5A U20A, the self-cleavage falls from 0.114 to 0.0737.

Compared with G5C U38C, G5C U38A is higher in self-cleavage: 0.12 for the first, 0.145 for the second.

Compared with G4C G41U, G5A G17A is higher in self-cleavage: 0.159 for the first, 0.166 for the second.

First: G5A G17C
Second: G5A A59U
The self-cleavage of the first is lower: 0.0889 for the first, 0.415 for the second.

First: G3U U46A
Second: G3U U26A
The self-cleavage of the first is higher: 0.162 for the first, 0.0295 for the second.

Going from G3U U67C to G3U U67G, the self-cleavage falls from 0.317 to 0.312.

Compared with G5A C33U, G5C C54A is lower in self-cleavage: 0.568 for the first, 0.123 for the second.

First: G4C U43C
Second: G4C U43G
The self-cleavage of the first is higher: 0.406 for the first, 0.26 for the second.

Going from G4C A42G to G4A G47U, the self-cleavage rises from 0.667 to 0.899.

First: G4A G17U
Second: G4A U64G
The self-cleavage of the first is lower: 0.145 for the first, 0.672 for the second.

Going from G4A U64A to G4A U64C, the self-cleavage falls from 0.7 to 0.696.

First: G4C G19C
Second: G4C G19U
The self-cleavage of the first is higher: 0.104 for the first, 0.103 for the second.

Compared with G4C U61A, G4U C18A is lower in self-cleavage: 0.147 for the first, 0.0913 for the second.

Going from G4A A13G to G4A G19A, the self-cleavage falls from 0.88 to 0.092.

First: G4U C7G
Second: G4U C7A
The self-cleavage of the first is lower: 0.0264 for the first, 0.0496 for the second.

First: G5C G17U
Second: G4C C34U
The self-cleavage of the first is lower: 0.118 for the first, 0.383 for the second.

Compared with G4C C34A, G4A U21A is higher in self-cleavage: 0.16 for the first, 0.793 for the second.

First: G5C C33U
Second: G5C A13C
The self-cleavage of the first is higher: 0.468 for the first, 0.17 for the second.

First: G5C A13U
Second: G5C A13G
The self-cleavage of the first is lower: 0.172 for the first, 0.273 for the second.

First: G4A C7G
Second: G4C A59C
The self-cleavage of the first is lower: 0.0338 for the first, 0.187 for the second.

G5C C29G gave a self-cleavage of 0.113.
